This note sets out measurements from patent US20230295324A1 (published 2023).

The EC50 is the concentration needed to bring the measured effect to its halfway point. What is called Kd is the equilibrium constant for the complex coming apart. Broadly, the koff is the rate constant with which the complex falls apart. One may read the kon as the rate constant with which the complex forms.

Test [1] has as its target T1, human OX40 on cells (CHO-K1/hu OX40) (human, UniProt P43489 29-277).
T1 sequence (looked up): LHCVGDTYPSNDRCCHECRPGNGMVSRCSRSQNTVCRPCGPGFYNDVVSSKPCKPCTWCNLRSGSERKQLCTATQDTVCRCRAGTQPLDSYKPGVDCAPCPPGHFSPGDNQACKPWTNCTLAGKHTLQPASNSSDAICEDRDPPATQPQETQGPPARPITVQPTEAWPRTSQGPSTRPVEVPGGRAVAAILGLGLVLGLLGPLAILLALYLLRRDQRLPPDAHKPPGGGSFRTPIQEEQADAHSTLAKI
The experiment in a line: cell-based or functional assay.

Test [2] concerns the target T1, human OX40 on cells (CHO-K1/hu OX40). The experiment in a line: cell-based or functional assay. The source holds these as a separate data set.
Test [3] shares this target. The experiment in a line: FACS, CHO-K1/hu OX40 cells. Summed up: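 Binding of anti-human OX40 HCAb antibodies measured by flow cytometry on CHO-K1 cells stably overexpressing human OX40. Cells incubated with 3-fold serially diluted antibodies 1 h at 4 °C in the dark, washed, then secondary staining 30 min at 4 °C; fluorescence read by FACS.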
A general note: A flow cytometer gives signals particle by particle.

Test [4] concerns the target T2, human 4-1BB on CHO-K1 cells (CHO-K1/hu 4-1BB) (human, UniProt Q07011 24-255).
T2 construct: whole, on cells
The experiment in a line: flow cytometry on CHO-K1/hu 4-1BB cells. The method, then:
This example is intended to investigate the specificity of in vitro binding of anti-human OX40 HCAb monoclonal antibodies by detecting 3 receptors of the TNF tumor necrosis factor receptor superfamily and ICOS by flow cytometry. The antibody binding assay at the cellular level was performed using a CHO-K1 cell strain overexpressing human OX40 (CHO-K1/hu OX40), a CHO-K1 cell strain overexpressing human CD40 (CHO-K1/hu CD40, Beijing KYinno, #KC-1286), a CHO-K1 cell strain overexpressing human 4-1BB (CHO-K1/hu 4-1BB, Genscript, #M00538) and an HEK293 cell strain overexpressing human ICOS (HEK293T/ICOS, Genscript, #KC-0210). Briefly, these cells were digested and resuspended in F12K or DMEM complete medium, and the cell density was adjusted to 1×10⁶ cells/mL. The cells were seeded in a 96-well V-bottom plate at 100 μL/well, and centrifuged, and then the supernatant was discarded. Then, the test antibodies diluted in a 3-fold gradient were added at 100 μL/well. The cells were incubated at 4° C. for 1 h away from light. Thereafter, the cells in each well were rinsed twice with 100 μL of pre-cooled PBS, and centrifuged at 500 g at 4° C. for 5 min, and then the supernatant was discarded. […] Finally, the cells in each well were resuspended in 200 μL of pre-cooled PBS, and the fluorescence signal values were read using NovoCyte flow cytometer (ACEA Biosciences).

Test [5] concerns the target T3, human OX40 protein (Acro biosystem, #OX0-H5224) (human, UniProt P43489 29-216).
T3 construct: Bought recombinant protein
T3 sequence (looked up): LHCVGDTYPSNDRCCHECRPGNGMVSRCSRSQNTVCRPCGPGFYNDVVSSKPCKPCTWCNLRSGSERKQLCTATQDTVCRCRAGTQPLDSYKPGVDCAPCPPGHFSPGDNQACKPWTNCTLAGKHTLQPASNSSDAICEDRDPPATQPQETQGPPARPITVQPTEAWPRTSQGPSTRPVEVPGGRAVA
The experiment in a line: BLI, antibody on ProA sensor, 1:1 global fit. Here is the method: (§1) The binding kinetics between the antigen and the antibody was analyzed by the Biolayer Interferometry (BLI) technique using an Octet Red 96e molecular interaction analyzer (Fortebio).
(§2) The association and dissociation signals between the OX40 antibodies and OX40 proteins were recorded by Octet Red 96 in real time. When data analysis was performed using Octet Data Analysis software (Fortebio, version 11.0), 0 nM was used as a reference hole, and reference subtraction was performed; the “1:1 Global fitting” method was selected to fit the data, and the kinetics parameters of the binding of antigens to antigen-binding proteins were calculated, with kon(1/Ms) values, kdis(1/s) values and KD(M) values obtained.

Test [6] addresses T4, cynomolgus monkey OX40 protein (Novoprotein, #CB17) (cynomolgus monkey).
T4 construct: Bought recombinant protein; also called cyno OX40
The experiment in a line: BLI, antibody on ProA sensor, 1:1 global fit. Here is the method:
as §1, §2
(BLI is a label-free optical method that tracks binding on a fibre tip over time.)

T2 sequence (Q07011 24-255): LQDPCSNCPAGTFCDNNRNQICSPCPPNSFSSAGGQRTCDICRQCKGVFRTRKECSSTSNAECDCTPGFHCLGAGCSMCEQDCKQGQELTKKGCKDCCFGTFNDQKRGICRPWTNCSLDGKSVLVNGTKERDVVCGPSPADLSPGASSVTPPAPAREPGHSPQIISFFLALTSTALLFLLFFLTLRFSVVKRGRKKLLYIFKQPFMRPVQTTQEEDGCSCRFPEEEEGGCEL

B1: PR002067 (antibody, human IgG1, V domains shown)
VH: EVQLLESGGGLVQPGGSLRLSCAASGFTFSSYAMSWVRQAPGKGLEWVSAISGRGGSTFYADSVRGRFTISRDNSKNTLYLQMNSLRAEDTAMYYCVDGTTGTTDVDYWGQGTLVTVSS
notes: no light chain; also called anti-OX40 HCAb antibody
In the case of B1, in test [1], the “EC50, HEK293/OX40/NF-kb luciferase reporter” value is 5.37 nM and the “Maximum fluorescence signal value, HEK293/OX40/NF-kb luciferase reporter” value was 137000 luminescence. In addition, in test [2], the “EC50, IFN-γ release by human T cells with OKT3 and CHO-K1-CD32b cells” value is 0.0863 nM; the “Maximum IFN-γ release value” amounted to 2000. For the same molecule, in test [3], the EC50 turned out to be 5.25 nM and the “Maximum MFI” value was determined as 3010 MFI. In addition, in test [4], the binding result is “no binding”. Besides, in test [5], the affinity, expressed as Kd, was 4.16 nM; the koff turned out to be 0.000156 s⁻¹; the on-rate constant (kon) was determined as 37400 M⁻¹ s⁻¹. In test [6], this molecule yielded a Kd of 19.2 nM, a koff of 0.000475 s⁻¹ and a kon of 24800 M⁻¹ s⁻¹.
